# Measured values published in patent EP4714469A1, “PHARMACEUTICAL COMPOSITION COMPRISING ANTIBODY-DRUG CONJUGATE” (CSPC Megalith Biopharmaceutical Co., Ltd., priority 2023, dated 2024).
# Positions count from the first letter of the chain named. Marks after values point to notes of the source that are not given here. Starred links: 1 amine or outer side, 2 acyl side, 3 side chain; linkers in the order of their positions; H or OH if unused. Non-standard residues stand in square brackets, D forms with d. Residues, ends and D or L forms follow the SMILES beside them. *: point of attachment. Exatecan = CC[C@@]1(O)C(=O)OCc2c1cc1n(c2=O)Cc2c-1nc1cc(F)c(C)c3c1c2[C@@H](N*)CC3; Hexanoyl(6-maleimido) = O=C1C=CC(=O)N1CCCCCC(=O)*; X1 = C[C@@H](OCN[*:1])C(=O)[*:2]
# B1: SWY2111 (antibody, human IgG1, kappa, V domains shown)
# VH: QVQLQESGPGLVKPSETLSLTCTVSGFSLSDYDVHWVRQAPGKGLEWLGVIWSGGNTDYNTPFTSRLTISVDTSKNQFSLKLSSVTAADTAVYYCARALDDYDYEFAYWGQGTLVTVSS
# VL: EIVLTQSPDFQSVTPKEKVTITCRASQSIGTNIHWYQQKPDQSPKLLIKYASESISGIPSRFSGSGSGTDFTLTINSLEAEDAATYYCQQNNEWPTSFGQGTKLEIKR
# notes: also called EGFR antibody SWY2111
# B2: SWY2113 (antibody, human IgG1, kappa, V domains shown)
# VH: B1 VH with D31H
# VL: B1 VL
# notes: also called EGFR antibody SWY2113
# B3: SWY2112 (antibody, human IgG1, kappa, V domains shown)
# VH: B1 VH with D31E
# VL: B1 VL
# notes: also called EGFR antibody SWY2112
# Experiments:
# [1] = Assay 8: stability of linker-drug compounds; format: physicochemical; settings: high temperature, high humidity, illumination or 0.5% BSA-PBS; compared with Deruxtecan
# Experimental: Different linker-drug compounds such as Deruxtecan and JSSW-001 were studied under high temperature (40°C, 60°C), high humidity (25°C/75% RH and 25°C/92.5% RH), illumination (illuminance 4500Lux, near-UV energy 90µw/cm^2), or 0.5% BSA-PBS conditions. Samples were collected at different times after exposure to these conditions, and the concentration changes of the linker-drug compounds in the samples were detected using the LC-MS/MS method.
# [2] = tested on: human lung cancer PC9-GR (gefitinib-resistant cell) xenograft tumor; test: Assay 3: PC9-GR xenograft efficacy of patritumab-ADC; format: in vivo, NU/NU mice; settings: 3 mg/kg i.v./qw*4w
# Source text: NU/NU mice, 5-6 weeks old, 16 mice
# (§1) The assay was terminated on day 28 after the administration.
# [3] = tested on: human colon cancer SW620 xenograft tumor; test: Assay 15: SW620 xenograft efficacy; format: in vivo, NU/NU mice; settings: 7 mg/kg i.v./single administration
# Source text: (§2) NU/NU mice, 5-6 weeks old, 18 mice
# The assay was terminated on day 26 after the administration.
# [4] = tested on: human colorectal cancer DiFi xenograft tumor; test: Assay 16: DiFi xenograft efficacy of patritumab-ADC; format: in vivo, NU/NU mice; settings: 10 mg/kg i.v./qw*3w (as in Table 29)
# Source text: as §2, §1
# EGFR on MDA-MB-468 cells [5] = molecular target: T1, EGFR on MDA-MB-468 cells (human, UniProt P00533 25-1210); test: flow cytometry (FACS) on MDA-MB-468 cells, pH 6.0; end of the range tied to SWY2111 by Table 1
# T1 construct: whole, on cells; also called target antigen; HER1
# EGFR on MDA-MB-468 cells [6] = molecular target: T1, EGFR on MDA-MB-468 cells; test: flow cytometry (FACS) on MDA-MB-468 cells, pH 7.4; end of the range tied to SWY2111 by Table 1
# EGFR on MDA-MB-468 cells [7] = molecular target: T1, EGFR on MDA-MB-468 cells; test: flow cytometry (FACS) on MDA-MB-468 cells, antibody diluted in PBS pH 6.0, FITC anti-human Fc secondary
# EGFR on MDA-MB-468 cells [8] = molecular target: T1, EGFR on MDA-MB-468 cells; test: flow cytometry (FACS) on MDA-MB-468 cells, antibody diluted in PBS pH 7.4, FITC anti-human Fc secondary
# EGFR on MDA-MB-468 cells [9] = molecular target: T1, EGFR on MDA-MB-468 cells; test: flow cytometry (FACS) on MDA-MB-468 cells, pH 6.0
# EGFR on MDA-MB-468 cells [10] = molecular target: T1, EGFR on MDA-MB-468 cells; test: flow cytometry (FACS) on MDA-MB-468 cells, pH 7.4; end of the range tied to SWY2113 by Table 1
# EGFR on MDA-MB-468 cells [11] = molecular target: T1, EGFR on MDA-MB-468 cells; test: flow cytometry (FACS) on MDA-MB-468 cells, pH 6.0; end of the range tied to SWY2112 by Table 1
molecule,measurement,setting,value
"CC[C@@]1(O)C(=O)OCc2c1cc1n(c2=O)Cc2c-1nc1cc(F)c(C)c3c1c2[C@@H](NC(=O)[C@@H](C)OCNC(=O)CNC(=O)[C@H](Cc1ccccc1)NC(=O)CNC(=O)CNC(=O)CCCCCN1C(=O)C=CC1=O)CC3 [JSSW-001, N-((2R,10S)-10-benzyl-1-(((1S,9S)-9-ethyl-5-fluoro-9-hydroxy-4-methyl-10,13-dioxo-2,3,9,10,13,15-hexahydro-1H,12H-benzo[de]pyrano[3',4':6,7]indolizino[1,2-b]quinolin-1-yl)amino)-2-methyl-1,6,9,12,15-pentaoxo-3-oxa-5,8,11,14-tetraazahexadecan-16-yl)-6-(2,5-dioxo-2,5-dihydro-1H-pyrrol-1-yl)hexanamide] ({Hexanoyl(6-maleimido)}-GGFG[X1]-Exatecan)",stability of linker-drug compound,[1],better stability
patritumab-DXD ADC (DAR=7.3): patritumab conjugated with commercially available Deruxtecan [reference compound],TGI (%) Day 28,[2],59.5%
same,Tumor Volume,[2]; 28 days,373.4 ± 102.8** mm^3
same,TGI (%) Day 21,[3],73.2%
same,Tumor Volume,[3]; 21 days,461.3±278.1*** mm^3
same,TGI (%) Day 28,[4],54.0%
same,Tumor Volume,[4]; 28 days,512.5 ± 470.8* mm^3
B1,fold change of affinity compared to SWY2110 at pH=6.0,EGFR on MDA-MB-468 cells [5],1.2 to 1.3 times
same,fold decrease of affinity compared to SWY2110 at pH=7.4,EGFR on MDA-MB-468 cells [6],3 times
same,EC50,EGFR on MDA-MB-468 cells [7],0.6 nM
same,EC50,EGFR on MDA-MB-468 cells [8],1.45 nM
B2,fold decrease of affinity compared to SWY2110 at pH=6.0,EGFR on MDA-MB-468 cells [9],6.6 times
same,EC50,EGFR on MDA-MB-468 cells [7],3.39 nM
same,EC50,EGFR on MDA-MB-468 cells [8],4.76 nM
same,fold decrease of affinity compared to SWY2110 at pH=7.4,EGFR on MDA-MB-468 cells [10],3 to 9.7 times
B3,fold change of affinity compared to SWY2110 at pH=6.0,EGFR on MDA-MB-468 cells [11],1.2 to 1.3 times
same,EC50,EGFR on MDA-MB-468 cells [7],0.67 nM
same,EC50,EGFR on MDA-MB-468 cells [8],2.35 nM
